Changes are numbered by the printed parent chain.
What was measured:
[1] = target: T1, ヒトポドプラニン (ヒトポドプラニン提示CHO細胞, CHO-hPDPN) (human, UniProt Q86YL7 23-162); test: flow cytometry on CHO-hPDPN, fit f(x)=a*x/(x+Kd)
T1 construct: whole, on cells
T1 sequence (looked up): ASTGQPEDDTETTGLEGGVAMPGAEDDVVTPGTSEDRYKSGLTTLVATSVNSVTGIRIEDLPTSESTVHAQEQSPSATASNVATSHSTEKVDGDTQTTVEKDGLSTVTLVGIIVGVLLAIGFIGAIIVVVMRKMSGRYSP

[2] = target: T2, ラットポドプラニン (ラットポドプラニン提示CHO細胞, CHO-rPDPN) (rat, UniProt Q64294 23-166); test: flow cytometry on CHO-rPDPN, fit f(x)=a*x/(x+Kd)
T2 construct: whole, on cells
T2 sequence (looked up): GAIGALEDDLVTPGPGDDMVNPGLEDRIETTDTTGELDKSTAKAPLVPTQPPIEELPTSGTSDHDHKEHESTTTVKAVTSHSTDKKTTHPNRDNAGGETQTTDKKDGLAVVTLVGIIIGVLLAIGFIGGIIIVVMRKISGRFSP

[3] = target: T3, ポドプラニン (ポドプラニン提示CHO細胞, 種の記載なし); test: flow cytometry; cells and species not named at this place
T3 construct: whole, on cells

B1: clone 1 (第一世代交差性一本鎖可変領域断片) (scFv)
scFv: EVQLKESGGGLVQSGGSLRLSCAASGFSLTDYGVNWVRQAPGKGLEWVGVIWGGGNTYYNSALKSRFTISKDNSKNTLYLQMNSLRAEDTAVYYCAKHRGAWGQGTLVTVSAAGGGGSGGGGSGGGGSDIVMTQSPSTLAVSLGEKATINCKSSKSLLNSGNQKNYLIWYQQKPGQPPKLLIYGASTRESGVPDRFSGSVSGTDFTLTISSLQAEDLAVYYCQNDHTYPLTFGQGTKVEIKRTV
notes: From the Hu2LPMab-16 scFv library; also called クローン1; 第一世代交差性抗体; not shown: C-terminal FLAG tag and His tag
For B1, the Kd [1] was 6.3 nM, the Kd [2] was 108 nM and the Kd [3] was 108 nM.

B2: clone 2 (scFv)
scFv: B1 scFv with S14P, T138N, K155Q, I168N, G184R, T231I
notes: From the Hu2LPMab-16 scFv library; also called クローン2; not shown: C-terminal FLAG tag and His tag
B2 was tested, and the Kd [1] was 6.5 nM and the Kd [2] was 500 nM.

— patent JP2020002075A (dated 2020)
